# What was measured:
# Bio-pt655 (phospho T217) = assay: indirect ELISA: biotinylated peptide on streptavidin plate, antibody titrated, peroxidase tracer antibody, TMB, OD450-630nm; panel 'Bio-pt655 (phospho T217)'
# Description: Tau antibodies described herein that detect phosphorylated Tau were tested in ELISA assays. […] Briefly, streptavidin beads were bound to a plate and biotinylated peptide was added to the plates under conditions allowing for biotin-streptavidin binding. […] This was the target peptide. After binding of the synthetic peptide to the plate by the formation of the biotin-streptavidin complex, Tau antibodies were added to the plates under conditions allowing for antibody-target peptide binding. […] After binding, plates were washed to remove any unbound tracer antibody and plates next had TMB ELISA Peroxidase chromogenic substrate (3, 3′, 5, 5′-Tetramethylbenzidine) added to visualize antibody reactivity in indirect ELISA experiments. Antibody sample binding was quantitated using an ELISA microplate reader.
# PT3 corresponds to a mouse anti-phospho (T212/T217) Tau selective antibody (Janssen Biotech Inc.). 30H10L2 corresponds to Antibody 2 described herein. 71H1L2 corresponds to Antibody 6 described herein. 62H10L7 corresponds to Antibody 5 described herein.
# Adx-pt655 = assay: capture ELISA: 30H10L2 bound to the plate, biotinylated peptide titrated (the concentration is that of Adx-pt655), streptavidin-peroxidase, TMB, OD450-630nm
# Source text: In FIG. 25, a diagram of an assay using Antibody 2 to detect capture of particular Tau peptides is depicted. In this assay, Antibody 2 is bound to a plate and sample wells from the plate are subjected to various biotinylated peptides under conditions conducive to forming specific antibody-ligand interactions. Samples are then washes to remove excess unbound biotinylated peptide. Streptavidin beads conjugated to peroxidase and then added to the samples to allow biotin-streptavidin complexes to form on peptide bound antibodies. TMBred substrate is then added and samples are measured for colorimetric development using an ELISA plate reader. […] Antibody 5 and Antibody 6 tested by indirect ELISA under the same conditions using the same Tau peptides yielded no specific dose-dependent reactivity toward the Tau peptides tested.
# [1] = biological target: T1, Tau in brain lysate samples from AD patients (human, UniProt P10636-8 2-441, limits assumed); assay: Western blot of brain lysates
# T1 construct: A mixture of isoforms; The phosphorylation state was not defined by the experiment; also called different length isoforms of Tau in AD samples
# T1 sequence (P10636 other isoform, or with tags, fused parts or gaps limits assumed): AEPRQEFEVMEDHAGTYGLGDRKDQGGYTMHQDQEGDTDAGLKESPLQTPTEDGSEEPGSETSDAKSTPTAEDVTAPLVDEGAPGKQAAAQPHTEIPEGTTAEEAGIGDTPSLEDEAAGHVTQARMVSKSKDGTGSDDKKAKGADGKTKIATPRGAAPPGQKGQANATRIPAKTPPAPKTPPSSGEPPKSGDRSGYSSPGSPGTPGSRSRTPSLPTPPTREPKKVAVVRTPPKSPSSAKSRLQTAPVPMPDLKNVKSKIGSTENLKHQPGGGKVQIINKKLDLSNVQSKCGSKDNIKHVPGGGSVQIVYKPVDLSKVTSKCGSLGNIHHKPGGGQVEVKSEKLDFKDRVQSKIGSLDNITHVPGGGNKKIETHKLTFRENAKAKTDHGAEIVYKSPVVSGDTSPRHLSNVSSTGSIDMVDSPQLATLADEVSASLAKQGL
# Description: (§1) In FIG. 26, Western blots were used to assess binding of various antibodies to brain lysate samples from AD patients and Control subjects. Protein ladders were run in lanes 1 and 10. Phosphatase treated pTau loaded in an amount of 0.05 ug was run in lane 2. Full-length Tau (Tau411) loaded in an amount of 0.05 ug was run in lane 3. Lanes 4-6 contain samples from different Control subjects with a dilution factor of 5. Lanes 7-9 contain samples from different AD subjects with a dilution factor of 5.
# [2] = biological target: T2, Tau in brain lysate samples from Control subjects (human, UniProt P10636-8 2-441, limits assumed); assay: Western blot of brain lysates
# T2 construct: A mixture of isoforms; also called different length isoforms of Tau in control samples
# T2 sequence (P10636 other isoform, or with tags, fused parts or gaps limits assumed): as above
# Description: as §1
EC50 (read off the curve) (Bio-pt655 (phospho T217)) [µg/mL],EC50 (read off the curve) (Adx-pt655) [µg/mL],binding result [1],binding result [2],Binder
~0.2,~0.4,–,–,"Antibody 2 (antibody, V domains shown, also called 30H10L2) VH: QSVEESGGRLVTPGTPLTLTCTVSGFSLSSYAMIWVRQAPGKGLEWIGFISRSGITYYASWAKGRFTISKTSTTVDLKMTSLTTEDTATYFCAREFGAVGSDYYRDAFNLWGPGTLVTVSS VL: DIVMTQTPASVEAAVGGTVTINCQASESINSWLSWYQQKPGQPPNLLIYRASTLASGVPSRFSGGGSGTEYTLTISDLECADAVTYYCQSYYEEDGIGYAFGGGTEVVVEG"
–,–,no binding (tested: DF 5),no binding (tested: DF 5),"Antibody 5 (antibody, V domains shown, also called 62H10L7) VH: QSVEESGGGLVTPGGTLTLTCTVSGFSLSNYAMSWVRQAPGKGLEWIGFISRSGITYYASWAKGRFTISKTSTTVDLKITSPTTEDTAAYFCAREFGAVGSDYYRDALRLWGPGTLVTVSS VL: DIVMTQTPSSVSAAVGGTVTIKCQASQSIGSNLAWYQQKPGQPPKLLIYGASTLESGVPSRFKGSGSGTEYTLTISDLECADAATYYCQSYYEGSDIGYAFGGGTEVVVEG"
–,–,no binding (tested: DF 5),no binding (tested: DF 5),"Antibody 6 (antibody, V domains shown, also called 71H1L2) VH: QSLEESGGRLVTPGTPLTLTCTVSGIDLSTHAMTWVRQAPGKGLEWIGVINPSGSAYYATWVNGRFTISKTSTTVDLKITSPTTGDTAKYFCARDYITAGDYYMDAFDPWGPGTLVTVSS VL: DIVMTQTPASVSAAVGGTVTIKCQASQSISNQLSWYQQKSGQPPKLLIYRASTLASGVPSRFKGSGSGTEFTLTISDLECADAATYYCQQGYNRDNVDNLFGGGTEVVVKG"

# From patent US20260008840A1 (ALZPATH, published 2026)
